Experiment: soluble on expression in E. coli; label from the status in PepcDB or PDB records

Sequence | soluble on expression in E. coli
MGSDKIHHHHHHMPNDTHTTQANVDPAEIAKFEAMAQSWWDPNGEFKPLHQLNPLRLNYIDSTAGGIFAKKVLDVGCGGGILSESMAKLGANVDGIDMGEAPLEVARLHALESGVMVNYHKTTAEAHSASHANHYQVVTCMEMLEHVPDPQSVIQACCDMVEPGGFVFFSTINRNMLSYVQAILGAEYLLKLLPIGTHDHSKFIRPSELMAMVDNTDLICKDALGISFNPLTSIFSYTKSLEVNYMIATQKMAD | not soluble
MGSDKIHHHHHHMKTYLVGGSVRDEILGLPVTDHDYVVVGVSPEEMVHLGFRPVGKDFPVFLHPQSQEQYALARTERKVSRGYKGFEVYASPEVTLQEDLARRDLTINAIAKDEYGNIIDPFGGIADLEAGVLRHIGPAFTEDPVRVLRTARFAARFGFHIAPETLALMNEMVHNGEVDALVSERVWQEIARGLMERHPSRMFYALRDCGALTRIMPEVDALFGVPQPPQHHPEIDTGVHVMMVIDYAASRNYSLQVRFAALTHDLGKGTTPPEEWPRHIGHEARSVRLVQGLCERINPPNEMRNLALLVARYHGDVHRAAELRPVTIANLLQGVDAYRKPERFEEFLQACACDFHGRPGYATRPYPQADRLREAFQAARSVDAGAIAKEMARNVSDPSRLPVAINTRVSETRIAEIRNRLGSLA | not soluble
MIDTVSVVLFSKKSHIKIARSVLRDFLQMHESSDSLIVDMEIVLGEILANVIKHTYKNDETKRIIVSYTLKDEVFHMLVRDFGPPVDPTRLKPMPPDLENPREGGYGFYIISRVTDEFRVRPLRNGNLTVVKKKLR | soluble
QALASDSEEADEVPEWLREGEFVTVGAHKTGVVRYVGPADFQEGTWVGVELDLPSGKNDGSIGGKQYFRCNPGYGLLVRPSRVRRAT | soluble
MGSDKIHHHHHHMKTVKTHITQLLHAMNKGIFEKEHPIALSLLSAISGESIFFLGPPGVAKSLIARRLKLAFDQSTAFEYLMSRFSTPDEIFGPVSISKLKDEDKYERIIEGYLPSATIVFLDEIWKAGPSIQNSLLTVINEKVYRNGQYTIQLPLKGLIAASNELPAQGEGLEALWDRFLIRYFIGNIEQEFAFDQMIASVNDMEAEIPTGLSITEEQYTDWRTQISQIKIHYTVFELIHSIKRQIEKYNIQKEEVPHSTLYISDRRWKKIISLLRTSAFLNETDTIRFSDCTLLLHCLWNEIEQIPIIEQMVSSALDECISHYLCGERTLEQKLSSIREDMKSEHSLRETKDPALQIVDTFYHQIERYPVAGNLLIFASDYQSLQKDTQKLFYVQRDKYRPVNWILKVYDHVRNRNISQSAIVSLKKGTRSVFINNQEYPLACNAGYDIAYPQEASLPFEFRFQEVIDLYHNRENELKRMTDIELTYCKEHLFMDDKQRNMVKQILNRQKEMLEIYQNEIREIAYTHGLENKEY | not soluble
GPGSMDTQGIRAVSEYVARGHGSGIVWAWCAASPAAFASMINSPSRTRQAAHERSVHYLSSYEQKSGCVCTVRVDRMGITLNEFHHTVPLWLVTWHTQLLYRLFGPVGVAVHVTDLDSLVLNSLLSAWEGTPVQVTALTSRHRLSTCVSAHRRSTGRVFSVLAGLQDLVLLPSPSVHGSLVVAEYAPLLRRVTASKCCVEYLKPLSQLQHLQEVQLSQTLIRDAELRILAQLPLLTTLDVSSCPHLSSLEPLACAASLRILRASSCERLMLVAQLGTLATLRIVDLSGNVFRPTEFASFITQPTLHLQAGYFAHMRWPRDDPPSTQVLGSVKHLHLSYGTVPNIRWLCGAHSLEQLCLDHTNVTAVDMAVLVQHTPLLSVLSLSYCEHLHTNLDFTRSLHFLAMLTITRSSLPSPFLELVELQQSLSLTLS | not soluble
MGSDKIHHHHHHMLPKYEIIKRDIIEKIESGEFSTGEKVYSEGDLKRKYNVSNTTVVKALNDLVNEGYLIRRQGEGTFVRKNLKHRKVFFSEKLSMSNNEKQKSVEETITLVSEEFTDKEIAQILGDKSGSKALLKLTQIALTNDFPWKIQNRYLFADKLRDDSVKRLIEGASLSDELGLQGNMANLPMTMEVSTILLTKDSDELEPLRIIRKSFGEEDSFSLFNIKRLIRGNDGVPIEYSQSFILSDFYQIEIISE | not soluble
MGHHHHHHSHMWTPTEEEKYGVVICSFRGSVPQGLVLEIGETVQILEKCEGWYRGVSTKKPNVKGIFPANYIHLKKAIVSNRGQYETVVPLEDSIVTEVTATLQEWASLWKQLYVKHKVDLFYKLRHVMNELIDLRRQLLSGHLTQDQVREVKRHITVRLDWGNEHLGLDLVPRKDFEVVDSDQISVSDLYKMHL | not soluble
TMITNSRGSVDLQPSLTGVFPSGLIETKVSAAKITENYQFDSRIRLNSIGFIPNHSKKATIAANCSTFYVVKEDGTIVYTGTATSMFDNDTKETVYIADFSSVNEEGTYYLAVPGVGKSVNFKIAMNVYEDAFKTAMLGMYLLRCGTSVSATYNGIHYSHGPCHTNDAYLDYINGQHTKKDSTKGWHDAGDYNKYVVNAGITVGSMFLAWEHFKDQLEPVALEIPEKNNSIPDFLDELKYEIDWILTMQYPDGSGRVAHKVSTRNFGGFIMPENEHDERFFVPWSSAATADFVAMTAMAARIFRPYDPQYAEKCINAAKVSYEFLKNNPANVFANQSGFSTGEYATVSDADDRLWAAAEMWETLGDEEYLRDFENRAAQFSKKIEADFDWDNVANLGMFTYLLSERPGKNPALVQSIKDSLLSTADSIVRTSQNHGYGRTLGTTYYWGCNGTVVRQTMILQVANKISPNNDYVNAALDAISHVFGRNYYNRSYVTGLGINPPMNPHDRRSGADGIWEPWPGYLVGGGWPGPKDWVDIQDSYQTNEIAINWNAALIYALAGFVNYNSPQNEVLYGDVNDDGKVNSTDLTLLKRYVLKAVSTLPSSKAEKNADVNRDGRVNSSDVTILSRYLIRVIEKLPI | soluble
MTRHGKNCTAGAVYTYHEKRKDTAASGYGTQSVRLGKDAIKDFDCCSLSLQPCRDPVLTEDGYLYEKEAILQYILHQKTEIAKKMKAYEKQKQALKSEGQLESKSEERERAEKFKQRENNIVSKPINPFTSGKSKDEGNQNGSTSSSSTDTSSGESSSSSALPSFWIPSLTPEAKPTLLKKPSKTVSCPMSGRPLKMSDLITVRFTPLDPSLDRVALLTRQDRYVCAVTKDTLGNSVPCAVLRPSGVVVTMECVEKLIKKDMVDPITGDKLKEKDIIPIQRGGTGFAGSGVDLKAKEARPVMQA | not soluble
TLIFDREEKEAGALSGQKGTYVELTDISKNLQNAVIATEDRSFYKNDGINYGRFFLAIVTAGRSGGGSTITQQLAKNAYLSQDQTVERKAKEFFLALELSKKYSKEQILTMYLNNAYFGNGVWGVEDASKKYFGVSASEVSLDQAATLAGMLKGPELYNPLNSV | not soluble
EDAWEANDPLGSLSIRYLEAAQDSQWHRELLLAGTDINHHVFRDLVTPRNPRSRFSFAMYLKEQGRMFDFGLLGRPASRHEWSDYLAWVSRQVDSQTCFNTPVTGIDPVLRNGRLHEVRVCTPQTCFTTRNVVLSSGSAPRIPHAFEALLGPTLFHTSQFLTRLQAFGEYLPKRWLVLGSGQSASESVLELVSRDHAIEV | not soluble
MSWITNYDAAQRELLMQKVQMQMSERRFRHVLGVEETAVALAAKYGADEAKASIAALTHDYAKERPNDEFELIIRRDGFDLALLNYGNEIWHGLVGADIVQRELAIDDEEILQAIRVHTTGAAKMSLLDKIIYVADYIEPGRDFPGVKEAREIALVDLDAAVAYETKHTLLHLIEQEHKIYPKTLETYNQWVVNQK | not soluble
MGSDKIHHHHHHMEHNRVLRLEHGINFRELGGYENTAGQTIKWQKLLRCGGMSLLTNRDLTYLDNYGLRYDIDLRQANEAEMSPDRYPKNTKYINTSVYPFTDNRRFDRRLKRLIKRMVVDDSFNAQTYAQMITDSHAVKVWQNLFATLLANDQPDQSVLFHCAAGKDRTGVAGALIMTALDVPRETIMQDYLLTNAVFMAADSMDTATIITKANAGDLASQFNVAMAVEADNMKMVFRVFDDLYGNGIGYLREVLGLSVADINNLRQLYLND | not soluble
MSLSDNITIKDVRTYSVSAEGGGDYHLQEKGHWITDTYISNPMSMYPDYKKTRTSWGIGVLGSVVVEIELSNGIVGVATGLGGEPACWLIQHHFKRFLINQSPKNLNLIWDQMFKASMFYGRKGITICAISVVDLALWDSLGILRDEPVWQMIGGKVRDEIHFYCTGPLPVETRKMGFWGSKVPLPFGPGDGHEGLEKNYEYLKKHRDSVPEKFPLMVDCYMSLNVQYAIQLAKRCEDLNINWWEEVLHPDDIDGYKQIKLAHPDKKWTTGEHEYTRYGFRQLIETRSIDILQPDVMWVGGMTELLKISAMAAAYDLPVVPHGSGPYSSHFIFSQPHSPFCEYIAGSPDGKKVIKMFPYFDGEQLPENGKIKPSYDPGFGMKIANKDTLIEIKQNEGHHHHHH | soluble
GPGSMKEIILYTRPNCPYCKRARDLLDKKGVKYTDIDASTSLRQEMVQRANGRNTFPQIFIGDYHVGGCDDLYALENKGKLDSLLQDVH | soluble
MSIINDENGRGYKVHLCKTNIAQNNNKFYDMELLDEGGDFIVKLINGRIGYRGVTQLKDFDDLDRAKKFFESKFYEKTHLHWEERDDEPVPNKYAVVELATNARQTEKEVKKEEPEPEPKVDEKNTRGRKKRGIVKEKKEIKKEEEPVEEVNEKLKELMKCICDEDVHLGLLKQLKFNEAFGRPIDCLSLAQLTTGYEILSKIEESIGGKSARRSTRGRPRVADRVLAVKSDGPSLHDINKYYSLIPHSFGFCVPPKIDSHAKIQAERELLDALKGSIEASLELKDLKKTASSKDIYQRLYERLPCHLEPVSEEIAGKIGDCLAMRGPTHCYKLSLIDAFELKDPNEIPTEAPVEVQEVPKKRGRKSTKTAAPTVPPPTTKRLLWHGTRVTNVFSILMNGLQFPVGDRCGLMFGNGVYFANVPTKSANYCCPEASKRVFMLLCEVETANPLVLYESEIDADEKMEKAKKTSVYAAGKHTPRDTVEINGIPAFKSNLETIEEETRLLYDEYVMFNKEHFKIKYVVEVKVDRLTAKEMMA | not soluble
DENASAAEQVNKTIIGIDPGSGIMSLTDKAMKDYDLNDWTLISASSAAMTATLKKSYDRKKPIIITGWTPHWMFSRYKLKYLDDPKQSYGSAEEIHTITRKGFSKEQPNAAKLLSQFKWTQDEMGEIMIKVEEGEKPAKVAAEYVNKHKDQIAEWTKGVQKVKGDKINLAYVAWDSEIASTNVIGKVLEDLGYEVTLTQVEAGPMWTAIATGSADASLSAWLPNTHKAYAAKYKGKYDDIGTSMTGVKMGLVVPQYMKNVNSIEDLKK | soluble
MGSDKIHHHHHHMENVVPPFKVDVAGTFLLPAALREAREQYRNEQISLLTLRAVEDAEIRNLVDRLKAEGLKVVTDGRFRSDAWPLDFMCGLDGIRFRDDRKTSVELTGRIDVHHHPVLDDFVFLTGVTGGDVIAKQVLPAPSRLLAELMKDANRTELDSVYPDREILLVDLAQTYQKLIMELYRSGCRYLQLDDATRTVTDNAIRVNNMALENLPADLFIAFHSPTEMLFSLQGIHAFFLDYDSECCGKNRLLWFIREKQSVFGFVLSHYPVEEELEELRAKIDQIIRYIPSHRFSLCIPNAEVLPSESYEAAEEKQWHTLKMAEMVAGELWPEEG | not soluble
MKTNYHTHTTRCMHAVGDDEDYVRSAIKGGFQELGFSDHGPWKYHTDFVSDIRMLPEDLPEYIESIRALKEKYRNQISIKIGLEYEYFPEYIHWLKEIIKEYRLDYILFGNHHYHTDEKFPYFGHHTTNRDMLDLYEESTIEGMESGLFAYLAHPDLFMRSYPEFDKHCISVSRHICRAAARLHIPLEYNIGYVAINEARGITTYPCPQFWHIAANEGCTAIIGLDAHNNLDLENPTYYDRACQELNALKMPVIDTIPFLKY | not soluble

From the DeepSol protein solubility set
